In paper doi:10.1101/521369 (bioRxiv, 2019):

Target: T1, Alexa488-PLCβ1 (purified PLCβ1a) (UniProt P10687 1-1216, Alexa488 on the N-terminus)
T1 sequence: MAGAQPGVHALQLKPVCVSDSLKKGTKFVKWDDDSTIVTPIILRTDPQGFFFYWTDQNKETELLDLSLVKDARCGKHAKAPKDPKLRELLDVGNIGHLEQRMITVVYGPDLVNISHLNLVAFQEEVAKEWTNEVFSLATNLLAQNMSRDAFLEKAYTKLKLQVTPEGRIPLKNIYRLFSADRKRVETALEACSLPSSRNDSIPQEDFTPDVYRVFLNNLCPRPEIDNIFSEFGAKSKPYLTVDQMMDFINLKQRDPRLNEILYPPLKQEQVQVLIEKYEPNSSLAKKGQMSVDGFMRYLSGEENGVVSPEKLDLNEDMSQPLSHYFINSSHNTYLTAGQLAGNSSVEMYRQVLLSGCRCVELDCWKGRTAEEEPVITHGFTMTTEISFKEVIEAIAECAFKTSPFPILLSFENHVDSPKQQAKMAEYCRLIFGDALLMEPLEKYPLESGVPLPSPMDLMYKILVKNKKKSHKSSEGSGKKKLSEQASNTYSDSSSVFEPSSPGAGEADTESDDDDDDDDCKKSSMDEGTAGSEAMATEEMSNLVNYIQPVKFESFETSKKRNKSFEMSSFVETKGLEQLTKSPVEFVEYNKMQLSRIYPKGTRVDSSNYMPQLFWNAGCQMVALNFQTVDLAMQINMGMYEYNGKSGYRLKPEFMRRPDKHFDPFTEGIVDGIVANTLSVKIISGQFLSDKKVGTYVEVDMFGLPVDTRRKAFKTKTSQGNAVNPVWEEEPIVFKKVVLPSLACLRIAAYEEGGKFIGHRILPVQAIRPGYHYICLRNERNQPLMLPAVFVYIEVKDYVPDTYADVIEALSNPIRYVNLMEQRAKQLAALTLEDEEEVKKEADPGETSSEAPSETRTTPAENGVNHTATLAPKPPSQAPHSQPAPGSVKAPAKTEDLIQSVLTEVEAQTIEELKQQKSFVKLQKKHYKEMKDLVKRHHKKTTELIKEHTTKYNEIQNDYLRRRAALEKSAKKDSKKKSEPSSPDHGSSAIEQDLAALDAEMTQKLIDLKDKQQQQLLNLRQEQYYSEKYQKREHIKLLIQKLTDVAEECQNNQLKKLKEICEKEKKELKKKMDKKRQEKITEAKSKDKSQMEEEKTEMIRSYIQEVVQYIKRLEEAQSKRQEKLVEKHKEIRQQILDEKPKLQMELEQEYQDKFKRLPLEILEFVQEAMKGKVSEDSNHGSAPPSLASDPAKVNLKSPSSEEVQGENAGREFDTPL
Test: other fluorescence titration

Kd: 27 ± 5 nM
B1: Alexa594-eIF5A (purified) (natural protein)
chain: not shown
modifications: Alexa594 on the N-terminus
